Laboratory results: EP4365192A1

Tests used:
[1] = biological target: Recombinant Human FGFR1 alpha (IIIc) Fc Chimera Protein (R&D systems, 658-FR-050) (human) (UniProt P11362); assay: ELISA: FGFR1 alpha (IIIc)-Fc coated at 0.5 ug/ml; FGF sample at 80 ng/mL after 0 h at 37°C; detected with biotinylated anti-FGF antibody BAM233 and streptavidin-HRP; blank subtracted
[2] = biological target: Recombinant Human FGFR1 alpha (IIIc) Fc Chimera Protein (R&D systems, 658-FR-050) (human) (UniProt P11362); assay: ELISA: FGFR1 alpha (IIIc)-Fc coated at 0.5 ug/ml; FGF sample at 80 ng/mL after 6 h at 37°C; detected with biotinylated anti-FGF antibody BAM233 and streptavidin-HRP; blank subtracted
[3] = biological target: Recombinant Human FGFR1 alpha (IIIc) Fc Chimera Protein (R&D systems, 658-FR-050) (human) (UniProt P11362); assay: ELISA: FGFR1 alpha (IIIc)-Fc coated at 0.5 ug/ml; FGF sample at 80 ng/mL after 24 h at 37°C; detected with biotinylated anti-FGF antibody BAM233 and streptavidin-HRP; blank subtracted
[4] = biological target: Recombinant Human FGFR1 alpha (IIIc) Fc Chimera Protein (R&D systems, 658-FR-050) (human) (UniProt P11362); assay: ELISA: FGFR1 alpha (IIIc)-Fc coated at 0.5 ug/ml; FGF sample at 80 ng/mL after 48 h at 37°C; detected with biotinylated anti-FGF antibody BAM233 and streptavidin-HRP; blank subtracted

Chain of Recombinant Human FGFR1 alpha (IIIc) Fc Chimera Protein (R&D systems, 658-FR-050) (human) (P11362 22-376, change not shown): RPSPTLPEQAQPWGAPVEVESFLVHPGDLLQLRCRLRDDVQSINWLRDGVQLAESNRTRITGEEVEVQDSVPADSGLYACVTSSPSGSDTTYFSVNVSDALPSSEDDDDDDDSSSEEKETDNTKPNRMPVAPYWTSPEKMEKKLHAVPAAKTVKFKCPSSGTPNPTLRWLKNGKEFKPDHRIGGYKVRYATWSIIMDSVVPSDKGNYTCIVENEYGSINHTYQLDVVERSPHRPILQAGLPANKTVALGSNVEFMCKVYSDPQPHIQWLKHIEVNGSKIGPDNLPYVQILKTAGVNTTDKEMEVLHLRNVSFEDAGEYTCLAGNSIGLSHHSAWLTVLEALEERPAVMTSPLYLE

FGF301 (FGF2_native_Pig) (from UniProt P03969 10-155) (ligand)
Absorbance (450 nm) (absorbance (450 nm)) [1]: 2.3 | Absorbance (450 nm) (absorbance (450 nm)) [2]: 2.1 | Absorbance (450 nm) (absorbance (450 nm)) [3]: 1.5 | Absorbance (450 nm) (absorbance (450 nm)) [4]: 0.8
